From patent US20250333467A1 (TECTONIC OPERATING, published 2025)
“And” between values parts separate entries of the source, which are not always exact repeats. Identical values can stand only once. Like-named read-outs stand apart in the source and are kept apart here. Values belong to the binder of their own block, whether it stands above or below them.

Legend:
Test in all cases: cell-based or functional assay
human RXFP1 [1] = biological target: T1, human RXFP1 (human, UniProt Q9HBX9 1-757)
T1 sequence (looked up): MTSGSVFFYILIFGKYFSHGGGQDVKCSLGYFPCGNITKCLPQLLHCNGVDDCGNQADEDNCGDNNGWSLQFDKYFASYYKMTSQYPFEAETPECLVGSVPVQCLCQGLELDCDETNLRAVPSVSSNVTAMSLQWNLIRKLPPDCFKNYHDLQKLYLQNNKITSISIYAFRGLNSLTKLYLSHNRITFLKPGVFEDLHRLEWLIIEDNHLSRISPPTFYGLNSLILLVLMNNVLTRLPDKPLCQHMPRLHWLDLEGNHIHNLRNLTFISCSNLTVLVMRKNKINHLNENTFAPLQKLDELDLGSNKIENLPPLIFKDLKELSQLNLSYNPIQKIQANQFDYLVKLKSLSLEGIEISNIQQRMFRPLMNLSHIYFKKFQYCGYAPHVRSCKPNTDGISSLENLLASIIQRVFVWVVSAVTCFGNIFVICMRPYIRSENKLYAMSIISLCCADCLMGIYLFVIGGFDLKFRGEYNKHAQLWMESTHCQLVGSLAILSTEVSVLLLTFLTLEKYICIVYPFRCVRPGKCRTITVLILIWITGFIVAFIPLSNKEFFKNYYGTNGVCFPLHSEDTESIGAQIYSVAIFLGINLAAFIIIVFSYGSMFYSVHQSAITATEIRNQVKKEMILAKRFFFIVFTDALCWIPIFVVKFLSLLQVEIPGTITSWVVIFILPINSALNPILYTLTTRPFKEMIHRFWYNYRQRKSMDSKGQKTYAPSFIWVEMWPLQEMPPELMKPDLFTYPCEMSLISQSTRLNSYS

human RXFP2 [2] = biological target: T2, human RXFP2 (human, UniProt Q8WXD0 1-754)
human RXFP1 [3] = biological target: T1, human RXFP1; remark: listed apart in the source
cynomolgus monkey RXFP1 = biological target: T3, cynomolgus monkey RXFP1 (cynomolgus monkey, UniProt H9ERA2 1-757 (rhesus entry))
T3 sequence: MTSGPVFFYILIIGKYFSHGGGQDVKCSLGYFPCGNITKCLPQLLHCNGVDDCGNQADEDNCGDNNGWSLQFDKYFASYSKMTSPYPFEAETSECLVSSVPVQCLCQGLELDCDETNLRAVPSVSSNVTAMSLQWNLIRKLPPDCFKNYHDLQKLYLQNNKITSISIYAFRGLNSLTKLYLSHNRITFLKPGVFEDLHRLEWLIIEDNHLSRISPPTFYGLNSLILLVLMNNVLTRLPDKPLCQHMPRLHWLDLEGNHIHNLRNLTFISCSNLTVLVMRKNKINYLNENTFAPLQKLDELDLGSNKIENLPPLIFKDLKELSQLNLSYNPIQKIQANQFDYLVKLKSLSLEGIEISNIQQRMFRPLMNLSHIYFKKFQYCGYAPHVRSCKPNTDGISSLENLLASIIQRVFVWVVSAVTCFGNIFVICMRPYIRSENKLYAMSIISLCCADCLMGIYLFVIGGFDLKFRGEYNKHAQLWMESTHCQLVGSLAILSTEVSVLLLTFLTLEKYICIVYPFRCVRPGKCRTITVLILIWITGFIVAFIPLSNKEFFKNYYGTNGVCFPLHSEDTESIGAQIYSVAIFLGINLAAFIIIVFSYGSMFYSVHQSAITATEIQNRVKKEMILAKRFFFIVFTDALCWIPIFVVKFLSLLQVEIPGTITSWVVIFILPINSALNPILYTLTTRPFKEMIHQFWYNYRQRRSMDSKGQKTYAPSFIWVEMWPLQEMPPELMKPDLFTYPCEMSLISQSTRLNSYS

rat RXFP1 [4] = biological target: T4, rat RXFP1 (rat, UniProt Q6R6I6 1-758)
T4 sequence (looked up): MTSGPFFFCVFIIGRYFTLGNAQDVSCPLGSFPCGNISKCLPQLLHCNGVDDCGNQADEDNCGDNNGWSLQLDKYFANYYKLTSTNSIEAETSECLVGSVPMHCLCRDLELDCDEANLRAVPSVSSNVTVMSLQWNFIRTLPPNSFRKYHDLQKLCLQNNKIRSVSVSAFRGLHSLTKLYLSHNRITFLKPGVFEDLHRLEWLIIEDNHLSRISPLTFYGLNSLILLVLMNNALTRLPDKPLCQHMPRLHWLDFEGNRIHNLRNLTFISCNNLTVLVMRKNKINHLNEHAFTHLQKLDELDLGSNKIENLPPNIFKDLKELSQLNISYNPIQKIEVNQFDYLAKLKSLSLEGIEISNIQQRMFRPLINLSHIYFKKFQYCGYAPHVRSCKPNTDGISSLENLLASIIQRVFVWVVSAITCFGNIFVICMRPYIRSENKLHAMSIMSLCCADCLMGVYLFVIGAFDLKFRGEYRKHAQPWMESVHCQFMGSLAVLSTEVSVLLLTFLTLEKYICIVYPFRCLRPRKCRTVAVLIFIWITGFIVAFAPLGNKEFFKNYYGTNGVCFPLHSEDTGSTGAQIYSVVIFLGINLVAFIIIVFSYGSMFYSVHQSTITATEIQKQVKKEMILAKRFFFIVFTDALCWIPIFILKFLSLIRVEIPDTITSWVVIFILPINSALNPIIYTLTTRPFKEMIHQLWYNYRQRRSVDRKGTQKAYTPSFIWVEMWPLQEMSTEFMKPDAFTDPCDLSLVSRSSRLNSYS

human RXFP1 [5] = biological target: T1, human RXFP1; remark: listed apart in the source
rat RXFP1 [6] = biological target: T4, rat RXFP1; remark: listed apart in the source
human RXFP1 [7] = biological target: T1, human RXFP1; remark: listed apart in the source
human RXFP1 [8] = biological target: T1, human RXFP1; remark: listed apart in the source
human RXFP2 [9] = biological target: T2, human RXFP2; remark: listed apart in the source
rat RXFP1 [10] = biological target: T4, rat RXFP1; remark: listed apart in the source
human RXFP1 [11] = biological target: T1, human RXFP1; remark: listed apart in the source
human RXFP1 [12] = biological target: T1, human RXFP1; remark: listed apart in the source

T2 sequence (Q8WXD0 whole entry): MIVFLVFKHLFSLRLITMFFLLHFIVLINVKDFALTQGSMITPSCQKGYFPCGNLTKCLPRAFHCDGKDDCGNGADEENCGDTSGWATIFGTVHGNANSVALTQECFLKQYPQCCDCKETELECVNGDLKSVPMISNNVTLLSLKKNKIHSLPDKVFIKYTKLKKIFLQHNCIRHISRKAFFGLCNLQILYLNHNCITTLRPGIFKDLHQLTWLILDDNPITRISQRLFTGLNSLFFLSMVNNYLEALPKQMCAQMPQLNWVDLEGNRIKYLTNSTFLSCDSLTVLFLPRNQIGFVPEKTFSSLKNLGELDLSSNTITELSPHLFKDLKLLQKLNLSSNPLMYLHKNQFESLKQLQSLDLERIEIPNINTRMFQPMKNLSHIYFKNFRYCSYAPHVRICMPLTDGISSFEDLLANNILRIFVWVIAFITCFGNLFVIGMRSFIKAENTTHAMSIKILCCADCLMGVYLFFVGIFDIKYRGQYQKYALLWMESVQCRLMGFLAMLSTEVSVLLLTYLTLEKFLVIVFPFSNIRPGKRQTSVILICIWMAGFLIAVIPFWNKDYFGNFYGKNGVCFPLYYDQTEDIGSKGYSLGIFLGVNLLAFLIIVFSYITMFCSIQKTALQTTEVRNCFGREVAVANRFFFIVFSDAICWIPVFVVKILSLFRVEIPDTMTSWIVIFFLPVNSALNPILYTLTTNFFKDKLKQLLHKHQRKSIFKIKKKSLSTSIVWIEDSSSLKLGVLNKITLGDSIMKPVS

- Potency (cAMP, transient hRXFP1 in HEK293) (human RXFP1 [1]): 5.2 nM
- fold loss of cAMP potency on human RXFP2 against human RXFP1 (CHO-K1, stable) (human RXFP2 [2]): ~100 fold
- Potency (cAMP, transient hRXFP1 in HEK293) (human RXFP1 [3]): 8.5 nM
- cAMP response EC50, cynomolgus monkey RXFP1 transient in HEK293 (cynomolgus monkey RXFP1): 10 nM and 800 ng/mL
- cAMP response EC50, rat RXFP1 transient in HEK293 (rat RXFP1 [4]): 30 nM and 2000 ng/mL
- cAMP response EC50, human RXFP1 transient in HEK293 (human RXFP1 [5]): 10 nM and 800 ng/mL
- EC50 for cAMP generation, recombinant rat RXFP1 assay (average) (rat RXFP1 [6]): 35 nM
- EC50 for cAMP generation, recombinant human RXFP1 assay (average) (human RXFP1 [7]): 10 nM
- cAMP response EC50, THP-1 (endogenous RXFP1) (human RXFP1 [8]): 10 nM and 900 ng/mL
- cAMP response EC50, human RXFP1 stable in CHO-K1 (human RXFP1 [8]): 40 nM and 2000 ng/mL
- cAMP response EC50, human RXFP2 stable in CHO-K1 (human RXFP2 [9]): > 2 µM and > 1e+06 ng/mL
- Transient HEK293 rRXFP1 cAMP EC50 (rat RXFP1 [10]): 10.3 nM
- THP1 (endogenous RXFP1) cAMP EC50 (human RXFP1 [11]): 25 nM
- Transient HEK293 hRXFP1 cAMP EC50 (human RXFP1 [11]): 8.7 nM
B1: SEQ ID NO: 87 (Fc fusion)
chain: DKTHTCPPCPAPEAAGGPSVFLFPPKPKDTLMISRTPEVTCVVVDVSHEDPEVKFNWYVDGVEVHNAKTKPREEQYNSTYRVVSVLTVLHQDWLNGKEYKCKVSNKALAAPIEKTISKAKGQPREPQVYTLPPSRDELTKNQVSLTCLVKGFYPSDIAVEWESNGQPENNYKTTPPVLDSDGSFFLYSKLTVDKSRWQQGNVFSCSVLHEALHSHYTQKSLSLSPGKGGSDSWQEEVIKLCGRELVRAQIAICGKSTASDAAGAEAEAGARQLYSALANKCCHVGCTKRSLAQFC

- Potency (cAMP, transient hRXFP1 in HEK293) (human RXFP1 [1]): 0.1 nM
- EC50, cAMP response in RXFP1 transfected HEK293 cells (human RXFP1 [12]): 0.042 nM
- pEC50, cAMP response in RXFP1 transfected HEK293 cells (human RXFP1 [12]): 10.4
- cAMP response EC50, cynomolgus monkey RXFP1 transient in HEK293 (cynomolgus monkey RXFP1): 0.04 nM and 0.2 ng/mL
- cAMP response EC50, rat RXFP1 transient in HEK293 (rat RXFP1 [4]): 0.1 nM and 0.6 ng/mL
- cAMP response EC50, human RXFP1 transient in HEK293 (human RXFP1 [5]): 0.05 nM and 0.3 ng/mL
- EC50 for cAMP generation, recombinant rat RXFP1 assay (average) (rat RXFP1 [6]): 0.1 nM
- EC50 for cAMP generation, recombinant human RXFP1 assay (average) (human RXFP1 [7]): 0.04 nM
- cAMP response EC50, THP-1 (endogenous RXFP1) (human RXFP1 [8]): 0.07 nM and 0.4 ng/mL
- cAMP response EC50, human RXFP1 stable in CHO-K1 (human RXFP1 [8]): 0.2 nM and 1 ng/mL
- cAMP response EC50, human RXFP2 stable in CHO-K1 (human RXFP2 [9]): 10 nM and 90 ng/mL
- Transient HEK293 rRXFP1 cAMP EC50 (rat RXFP1 [10]): 0.122 nM
- THP1 (endogenous RXFP1) cAMP EC50 (human RXFP1 [11]): 0.2 nM
- Transient HEK293 hRXFP1 cAMP EC50 (human RXFP1 [11]): 0.039 nM
B2: Wild-type human relaxin-2 (ligand)
chain 1: DSWMEEVIKLCGRELVRAQIAICGMSTWS
chain 2: QLYSALANKCCHVGCTKRSLARFC
